Assay results reported in patent publication US20240084017A1 (ASCENDO BIOTECHNOLOGY, published 2024).
Substitutions are numbered along the chain they refer to.

B1: anti-Mac-1 antibody clone DF4-25 (antibody, human IgG4, V domains shown)
VH: EVQLVESGGGLVQPGGSLRLSCAASGFTFKDYWLSWVRQAPGKGLEWVSIINYGGSETYYADSVKGRFTISRDNSKNTLYLQMNSLRAEDTAVYYCARTQTSYVMDYWGQGTLVTVSS
VL: DIQMTQSPSSLSASVGDRVTITCRASQSVRSGLNWYQQKPGKAPKLLIYAASSLQSGVPRRFSGSGSGTDFTLTISSLQPEDFATYYCMQSHSWPLTFGQGTKVEIK
B2: anti-Mac-1 antibody clone m2396 (antibody, human IgG4, V domains shown)
VH: QVQLQESGPGLVKPSETLSLTCTVSGFSLTSNSISWVRQPPGKGLEWMGAIWSGGGTDYNPSLKSRLTISRDTSKSQVFLKMSSLTAADTAIYFCTRGGYPYYFDYWGQGVLVTVSS
VL: DIVMTQSPDSLAVSLGERVTINCKSSQSLLYSENQENYLAWYQQKPGQSPKLLIYWASTRQSGVPDRFSGSGSGTDFTLTISSVQAEDLAIYYCQQYYDTPLTFGGGTKLEIK
B3: anti-Mac-1 antibody clone DF3M-5 (antibody, human IgG4, V domains shown)
VH: EVQLVESGGGLVQPGGSLRLSCAASGFTFGTYDMHWVRQAPGKGLEWVSMISPSGGDTYYADSVKGRFTISRDNSKNTLYLQMNSLRAEDTAVYYCARDSSGDWYAMAYWGQGTLVTVSS
VL: DIQMTQSPSSLSASVGDRVTITCRASQSIRRYLAWYQQKPGKAPKLLIYGASNLQSGVPSRFSGSGSGTDFTLTISSLQPEDFATYYCQHSSDTPLTFGQGTKVEIK
B4: anti-Mac-1 antibody clone 24F09 (antibody, human IgG4, V domains shown)
VH: EVQLVESGGGLVQPGGSLRLSCAASGFTFSSAWMSWVRQAPGKGLEWVSTIYWSGSEINYADSVKGRFTISRDNSKNTLYLQMNSLRAEDTAVYYCARSFASGESAMDVWGQGTLVTVSS
VL: B3 VL with R30S, R31N, G50D, H90Q, S91Y, S92Y, D93S, T94S, L96P
notes: also called 24F9
B5: anti-Mac-1 antibody clone 24F08 (antibody, human IgG4, V domains shown)
VH: EVQLVESGGGLVQPGGSLRLSCAASGFTFSSYWMSWVRQAPGKGLEWVSIINYSGREADYADSVKGRFTISRDNSKNTLYLQMNSLRAEDTAVYYCARDGSYVGQAHEAFDIWGQGTLVTVSS
VL: B3 VL with R30S, R31K, A51T, H90Q, S92R, D93S, T94W

biological target: T1, human Mac-1 (integrin αMβ2, CD11b/CD18) (human, UniProt P11215 17-1152; P05107 23-769); test: flow cytometry, HEK293/Mac-1 cells, PBS/MnCl2 (Mn2+), 10 µg/ml of this antibody; binding of reporter mAb KIM127 read
Procedure: (§1) The HEK293/Mac-1 cells (clone1-4) were counted and washed twice with staining buffer (PBS containing 1% FBS, and 0.1% sodium azide). Cells were adjusted at a concentration of 1×10⁵ cells/ml in staining buffer and treated with/without 0.25 mM MnCl₂ (Sigma). Cells were treated with anti-Mac-1 antibodies and fluorescent conjugated anti-human IgG4 antibodies and incubated for 15 mins. After washing with the staining buffer, the cells were analyzed by flow cytometry. In some examples, these cells were treated with the antibodies (ICRF44, KIM127, m24, or isotype control) in the presence or absence 10 μg/ml anti-Mac-1 antibodies. The cells were then incubated at 37° C. for 30 min. After washing with the staining buffer, the cells were analyzed by flow cytometry.
(§2) TABLE IV The anti-Mac-1 antibody can serve as an antagonist to reduce the conformational change of Mac-1. HEK293/Mac-1 cells (clone1-4) were incubated with 10 μg/ml anti-Mac-1 antibodies under the PBS/MnCl₂ (Mn²⁺) condition. Binding of KIM127 or m24 was detected using flow cytometry.

Row | KIM127 (Expression relative to IgG4) | Binder
1 | 1.75 relative to IgG4 | B1
2 | 0.81 relative to IgG4 | B2
3 | 1.68 relative to IgG4 | B3
4 | 1.71 relative to IgG4 | B4
5 | 1.73 relative to IgG4 | B5

biological target: T1, human Mac-1 (integrin αMβ2, CD11b/CD18); test: flow cytometry, HEK293/Mac-1 cells; MFI in PBS over MFI in PBS/MnCl2
Procedure: as §1
(§3) TABLE II The anti-Mac-1 antibodies selectively bind to different statuses of human Mac-1. HEK293/Mac-1 cells (clone1-4) were incubated in PBS (Mock), or PBS/MnCl₂ (Mn²⁺). Binding of isotype control IgG, the CD11b specific mAb (ICRF44), the CD11b activation-sensing mAb (CBRM1/5), or the screened anti-Mac-1 antibody was detected using flow cytometry.

Row | Mock/Mn^2+ Ratio | Binder
6 | 1.17 | B1
7 | 1.01 | B2
8 | 0.66 | B3
9 | 1.17 | B4
10 | 1.19 | B5

biological target: T2, mouse Mac-1 (mouse, UniProt P05555 17-1153; P11835 24-771); test: flow cytometry, Raw 264.7 cells
T2 construct: whole, on cells; also called Raw264.7
T2 sequence (P05555 17-1153, chain 1 of 2): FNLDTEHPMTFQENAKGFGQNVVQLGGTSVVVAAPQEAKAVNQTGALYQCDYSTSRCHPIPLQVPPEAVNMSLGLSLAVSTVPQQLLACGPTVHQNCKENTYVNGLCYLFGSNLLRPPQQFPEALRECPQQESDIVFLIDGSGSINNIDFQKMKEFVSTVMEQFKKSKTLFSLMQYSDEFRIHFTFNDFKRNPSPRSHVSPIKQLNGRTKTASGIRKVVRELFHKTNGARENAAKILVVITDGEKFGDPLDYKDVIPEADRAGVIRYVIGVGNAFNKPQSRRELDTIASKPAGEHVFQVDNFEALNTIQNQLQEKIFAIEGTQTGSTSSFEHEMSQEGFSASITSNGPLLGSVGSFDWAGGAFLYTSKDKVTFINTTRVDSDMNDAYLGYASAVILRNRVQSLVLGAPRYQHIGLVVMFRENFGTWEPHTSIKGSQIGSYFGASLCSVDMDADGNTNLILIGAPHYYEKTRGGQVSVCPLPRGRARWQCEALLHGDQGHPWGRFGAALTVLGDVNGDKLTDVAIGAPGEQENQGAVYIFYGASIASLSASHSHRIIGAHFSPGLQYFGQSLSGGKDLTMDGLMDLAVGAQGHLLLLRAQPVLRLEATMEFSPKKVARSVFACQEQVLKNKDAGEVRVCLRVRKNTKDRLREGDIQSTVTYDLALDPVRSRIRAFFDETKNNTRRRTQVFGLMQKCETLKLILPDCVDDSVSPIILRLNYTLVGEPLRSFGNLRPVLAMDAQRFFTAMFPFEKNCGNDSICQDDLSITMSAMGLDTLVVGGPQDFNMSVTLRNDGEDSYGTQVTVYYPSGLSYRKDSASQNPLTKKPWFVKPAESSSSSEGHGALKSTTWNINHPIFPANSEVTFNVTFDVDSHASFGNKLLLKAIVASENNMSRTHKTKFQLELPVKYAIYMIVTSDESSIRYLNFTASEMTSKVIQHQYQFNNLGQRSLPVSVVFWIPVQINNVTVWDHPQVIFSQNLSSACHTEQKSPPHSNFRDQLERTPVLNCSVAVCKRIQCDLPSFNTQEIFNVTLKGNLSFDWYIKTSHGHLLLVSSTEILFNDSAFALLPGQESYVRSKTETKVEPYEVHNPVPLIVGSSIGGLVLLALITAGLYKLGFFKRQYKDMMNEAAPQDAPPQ
T2 sequence (P11835 24-771, chain 2 of 2): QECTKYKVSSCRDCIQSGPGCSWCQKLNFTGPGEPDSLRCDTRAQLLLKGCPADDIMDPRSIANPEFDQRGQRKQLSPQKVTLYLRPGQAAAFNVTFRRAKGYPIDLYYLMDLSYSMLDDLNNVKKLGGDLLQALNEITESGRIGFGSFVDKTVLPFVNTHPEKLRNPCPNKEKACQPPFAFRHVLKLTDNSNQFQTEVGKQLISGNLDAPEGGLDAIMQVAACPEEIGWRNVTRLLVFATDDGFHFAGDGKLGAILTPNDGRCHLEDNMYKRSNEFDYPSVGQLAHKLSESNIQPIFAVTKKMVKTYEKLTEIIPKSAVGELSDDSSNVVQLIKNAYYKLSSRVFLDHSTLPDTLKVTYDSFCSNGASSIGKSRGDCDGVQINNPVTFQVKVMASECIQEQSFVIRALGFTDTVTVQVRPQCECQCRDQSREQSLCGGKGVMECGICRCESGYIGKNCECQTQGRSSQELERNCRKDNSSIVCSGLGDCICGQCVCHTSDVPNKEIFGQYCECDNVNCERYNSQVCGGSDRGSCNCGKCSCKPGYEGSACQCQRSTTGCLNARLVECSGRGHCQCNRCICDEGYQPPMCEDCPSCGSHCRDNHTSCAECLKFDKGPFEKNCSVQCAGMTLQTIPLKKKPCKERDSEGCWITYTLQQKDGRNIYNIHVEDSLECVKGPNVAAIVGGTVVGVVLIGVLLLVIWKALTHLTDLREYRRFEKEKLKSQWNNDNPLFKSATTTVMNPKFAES

Row | binding result | Binder
11 | binds | B2
12 | binds | B3

biological target: T1, human Mac-1 (integrin αMβ2, CD11b/CD18); test: flow cytometry, HEK293/Mac-1 cells, PBS/MnCl2 (Mn2+), 10 µg/ml of this antibody; binding of reporter mAb m24 read
Procedure: as §1, §2

Row | m24 (Expression relative to IgG4) | Binder
13 | 4.34 relative to IgG4 | B1
14 | 0.83 relative to IgG4 | B2
15 | 4.4 relative to IgG4 | B3
16 | 4.01 relative to IgG4 | B4
17 | 4.01 relative to IgG4 | B5

biological target: T1, human Mac-1 (integrin αMβ2, CD11b/CD18); test: flow cytometry, HEK293/Mac-1 cells, PBS (Mock), 10 µg/ml of this antibody; binding of reporter mAb m24 read
Procedure: as §1
(§4) TABLE III The anti-Mac-1 antibodies can serve as agonist to enhance the conformational change of Mac-1. HEK293/Mac-1 cells (clone1-4) were incubated with 10 μg/ml anti-Mac-1 antibodies under the PBS (Mock) condition. Binding of KIM127 or m24 was detected using flow cytometry.

Row | m24 (Expression relative to IgG4) | Binder
18 | 24 relative to IgG4 | B1
19 | 0.88 relative to IgG4 | B2
20 | 28.4 relative to IgG4 | B3
21 | 19.1 relative to IgG4 | B4
22 | 21.2 relative to IgG4 | B5

biological target: T1, human Mac-1 (integrin αMβ2, CD11b/CD18); test: flow cytometry, HEK293/Mac-1 cells, PBS (Mock), 10 µg/ml of this antibody; binding of reporter mAb KIM127 read
Procedure: as §1, §4

Row | KIM127 (Expression relative to IgG4) | Binder
23 | 2.23 relative to IgG4 | B1
24 | 1.09 relative to IgG4 | B2
25 | 2.49 relative to IgG4 | B3
26 | 2.05 relative to IgG4 | B4
27 | 2.17 relative to IgG4 | B5

biological target: T1, human Mac-1 (integrin αMβ2, CD11b/CD18); test: flow cytometry, HEK293/Mac-1 cells (clone 1-4), PBS (Mock)
Procedure: as §1, §3

Row | Mock MFI [MFI] | Binder
28 | 35700 | B1
29 | 108000 | B2
30 | 34600 | B3
31 | 39800 | B4
32 | 50000 | B5

biological target: T1, human Mac-1 (integrin αMβ2, CD11b/CD18); test: flow cytometry, HEK293/Mac-1 cells (clone 1-4), PBS/MnCl2 (Mn2+)
Procedure: as §1, §3

Row | Mn^2+ MFI [MFI] | Binder
33 | 30500 | B1
34 | 107000 | B2
35 | 52500 | B3
36 | 33900 | B4
37 | 42100 | B5
